Data reported in patent US20240301373, “FANZORS ARE RNA-GUIDED NUCLEASES ENCODED IN EUKARYOTIC GENOMES” (Massachusetts Institute of Technology, published 2024).

What was measured:
MmFNuc = biological target: T1, MmFNuc (Mercenaria mercenaria); assay: pulldown; co-purified fRNA sequenced
T1 chain: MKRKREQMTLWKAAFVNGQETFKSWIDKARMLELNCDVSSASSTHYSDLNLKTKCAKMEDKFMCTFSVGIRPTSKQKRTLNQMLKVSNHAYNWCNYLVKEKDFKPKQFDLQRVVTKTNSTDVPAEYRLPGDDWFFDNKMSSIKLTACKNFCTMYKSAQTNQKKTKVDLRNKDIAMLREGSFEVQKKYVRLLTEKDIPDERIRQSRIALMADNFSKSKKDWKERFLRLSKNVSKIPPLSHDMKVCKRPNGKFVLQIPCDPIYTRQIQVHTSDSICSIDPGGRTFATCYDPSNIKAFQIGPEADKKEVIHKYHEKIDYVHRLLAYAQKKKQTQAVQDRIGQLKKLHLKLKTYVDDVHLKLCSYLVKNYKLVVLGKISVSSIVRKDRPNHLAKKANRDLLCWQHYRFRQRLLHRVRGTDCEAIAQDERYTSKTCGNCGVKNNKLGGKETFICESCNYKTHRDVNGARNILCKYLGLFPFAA
Source text: (§1) This study sought to explore whether Fanzor2 proteins from diverse eukaryotes also are active RNA-guided nucleases. Three Fanzor2 representatives from three animals and a Fanzor1 representative from a plant were chosen for this study: 1) Fanzor2 from Aercenaria mercenaria (Venus clam, MmFNuc), 2) Fanzor2 from Dreissena polymorpha (Zebra mussel, DpFNuc), 3) Fanzor2 from Batillaria attramentaria (Japanese mud snail; BaFNuc), and 4) Fanzor1 from Klebsormidium nitens (freshwater green algae; KnFNuc) (FIG. 21A). […] Constructs for co-expression of the fRNA and Fanzor nuclease were cloned in a cell-free transcription/translation system, allowing for isolation of the resulting RNPs to study their fRNA sequences and cleavage activity (FIG. 21B). […] These fRNAs were highly structured with diverse structural motifs and domains (FIG. 28B).

[1] = biological target: T2, ApmFNuc (ApmHNuc, Isvmimi Fanzor2) (Acanthamoeba polyphaga mimivirus, UniProt Q5UPQ8 SEQ:1-520); assay: pulldown; co-purified fRNA identified by small RNA sequencing; settings: tags: Strep tag; RNP co-expressed with fRNA in E. coli
T2 sequence: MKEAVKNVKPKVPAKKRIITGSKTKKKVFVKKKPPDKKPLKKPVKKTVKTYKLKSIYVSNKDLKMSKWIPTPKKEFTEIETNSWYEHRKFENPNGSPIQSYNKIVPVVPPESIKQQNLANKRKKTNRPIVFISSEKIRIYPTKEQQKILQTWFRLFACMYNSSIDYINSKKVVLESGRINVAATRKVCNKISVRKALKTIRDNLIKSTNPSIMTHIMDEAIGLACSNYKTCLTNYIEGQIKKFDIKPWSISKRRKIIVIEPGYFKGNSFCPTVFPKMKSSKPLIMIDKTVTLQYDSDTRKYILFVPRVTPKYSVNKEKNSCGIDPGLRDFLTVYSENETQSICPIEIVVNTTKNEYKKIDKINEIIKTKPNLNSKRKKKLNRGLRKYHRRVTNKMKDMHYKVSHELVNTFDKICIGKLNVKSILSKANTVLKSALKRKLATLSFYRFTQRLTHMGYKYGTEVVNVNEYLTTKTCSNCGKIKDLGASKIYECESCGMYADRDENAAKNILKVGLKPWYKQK

BaFNuc = biological target: T3, BaFNuc (Batillaria attramentaria); assay: pulldown; co-purified fRNA sequenced
T3 chain: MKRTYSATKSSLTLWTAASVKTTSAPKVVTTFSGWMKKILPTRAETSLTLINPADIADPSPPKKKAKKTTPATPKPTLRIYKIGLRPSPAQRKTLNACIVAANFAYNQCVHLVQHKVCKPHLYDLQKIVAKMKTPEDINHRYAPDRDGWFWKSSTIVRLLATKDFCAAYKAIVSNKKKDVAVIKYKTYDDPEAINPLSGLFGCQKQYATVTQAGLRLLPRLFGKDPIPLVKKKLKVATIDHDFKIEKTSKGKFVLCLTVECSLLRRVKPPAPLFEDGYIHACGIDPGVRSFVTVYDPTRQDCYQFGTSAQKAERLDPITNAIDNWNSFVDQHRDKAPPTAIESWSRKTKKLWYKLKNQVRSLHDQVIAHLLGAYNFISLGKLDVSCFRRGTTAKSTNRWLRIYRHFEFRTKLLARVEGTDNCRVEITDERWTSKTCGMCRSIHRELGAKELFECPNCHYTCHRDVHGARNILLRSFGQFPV
Source text: as §1

DpFNuc = biological target: T4, DpFNuc (Dreissena polymorpha); assay: pulldown; co-purified fRNA sequenced
T4 chain: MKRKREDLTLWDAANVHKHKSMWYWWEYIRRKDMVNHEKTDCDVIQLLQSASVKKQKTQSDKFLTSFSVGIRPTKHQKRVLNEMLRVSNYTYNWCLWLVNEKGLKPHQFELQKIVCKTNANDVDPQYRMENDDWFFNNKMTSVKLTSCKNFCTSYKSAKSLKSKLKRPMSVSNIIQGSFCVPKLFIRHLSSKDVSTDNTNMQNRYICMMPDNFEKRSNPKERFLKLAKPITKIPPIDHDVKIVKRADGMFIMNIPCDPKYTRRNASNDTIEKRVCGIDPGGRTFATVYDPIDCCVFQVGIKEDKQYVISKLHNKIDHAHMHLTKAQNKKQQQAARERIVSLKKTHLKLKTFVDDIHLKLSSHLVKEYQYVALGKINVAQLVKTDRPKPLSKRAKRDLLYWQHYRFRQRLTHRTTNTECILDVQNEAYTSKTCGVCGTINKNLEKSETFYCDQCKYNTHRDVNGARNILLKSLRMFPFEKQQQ
Source text: as §1

KnFNuc (Fanzor1) = biological target: T5, KnFNuc (Fanzor1) (Klebsormidium nitens); assay: pulldown; co-purified fRNA sequenced
T5 chain: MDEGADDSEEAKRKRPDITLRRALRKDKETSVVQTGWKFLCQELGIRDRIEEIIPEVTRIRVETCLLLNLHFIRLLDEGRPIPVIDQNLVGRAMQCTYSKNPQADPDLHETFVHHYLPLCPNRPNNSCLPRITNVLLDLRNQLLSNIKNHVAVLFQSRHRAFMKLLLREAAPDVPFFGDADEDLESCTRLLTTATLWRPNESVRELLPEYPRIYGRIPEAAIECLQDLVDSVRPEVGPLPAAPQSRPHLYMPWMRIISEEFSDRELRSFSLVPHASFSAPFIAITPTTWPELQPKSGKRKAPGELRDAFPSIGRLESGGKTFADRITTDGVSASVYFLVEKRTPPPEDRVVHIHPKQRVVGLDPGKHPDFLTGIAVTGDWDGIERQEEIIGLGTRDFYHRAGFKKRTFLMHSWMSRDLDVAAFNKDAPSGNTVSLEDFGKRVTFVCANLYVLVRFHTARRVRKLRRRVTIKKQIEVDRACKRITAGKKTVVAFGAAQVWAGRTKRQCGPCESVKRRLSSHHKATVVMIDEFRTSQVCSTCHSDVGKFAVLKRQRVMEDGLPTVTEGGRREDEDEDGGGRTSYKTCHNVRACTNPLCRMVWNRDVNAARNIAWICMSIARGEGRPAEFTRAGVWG
Source text: as §1

B1: MmFNuc fRNA scaffold (ssRNA)
RNA: ACUUCCAAGACCUGUGGUAAUUGCGGUGUGAAGAACAACAAACUUGGUGGAAAGGAAACGUUUACUUGUGAGUGUUGCAAUUACAAAACUCAUCGAGACGUCAACGGAGCGAGAAACAUUCUGUGCAAAUACUUGAAACUUUUUCCAUUCGCAGCAUAACGAAAGAAACUGACAAUCGAUUUUUUCGGGUUCGAUUCUAUCCCACUUGACUCAAAGAGUCAGAGGGCUCGAAUACAUUUUCUGCACAGGUUUUGCUAAUGCAAGAUCUGGGGCAAGAAUGUGUUCGGGUCAAAUGAGUUA
binding result (MmFNuc): binds

B2: ApmFNuc fRNA scaffold (21 nt 3' guide appended) (ssRNA)
RNA: AAAAAUAGUCUAAUAAAAUCAGGGGUACAUUCCGCUAGUACUCCACCCUACGGGUUAAGCAAAUGAGAAUAUCGAAACGGUAUGCACAGGAUUCUUCGAGUGAUAAUCUUAGGAUGACUCACUAAGGAGAUGACUAAAGUGUAUCAUUCAAUAUUGUAUUGAACGGUAUUCUUCCAUAGAGAGUUGAUUUUUGGAGUAUCCAGAAAUAUCAACUUUUUAUGAGCGG
binding result [1]: binds

B3: BaFNuc fRNA scaffold (ssRNA)
RNA: CGCUCGAGUGGAGGGAACUGACAACUGUAGAGUGGAGAUCACCGACGAACGCUGGACCUCAAAGACGUGUGGCAUGUGCAGAUCCAUCCACCGCGAACUUGGGGCAAAAGAACUAUUCGAGUGCCCCAACUGCCACUACACCUGCCACAGAGACGUGCACGGAGCUCGAAACAUCUUGCUGAGAAGCUUCGGACAGUUUCCAGUCUAGAAAAACACGAACUUUUUCCUUGGCCCAAGGAUUGCCAAACACCACUCAAAUCCUCGUUCAGGGGCCUCGAGUGGCUGGGCAUAUAUGGGUUA
binding result (BaFNuc): binds

B4: DpFNuc fRNA scaffold (ssRNA)
RNA: AUUGGAUGUUCAAAAUGAAGCAUACACUUCGAAGACGUGUGGAGUGUGUGGAACAAUAAACAAAAAUCUAGAAAAGAGUGAAACAUUUUAUUGCGAUAACUGCAAAUAUAACACACACAGAGACGUUAAUGGUGCUAGAAAUAUUUUGCUAAAAUCGUUGCGCAUGUUUCCAUUUGUCAAUUCGCAGUUAUAAUUACUCUGUAACAAUUAGGUCGAUCCAUCCUAAAUUCGAAAGUCCAUUGCUACGAGACUUUGCGUAUGCUUAGUCCAGGGCAAUUUUCUGCCGAAUGAAAUGGGUUA
binding result (DpFNuc): binds

B5: KnFNuc fRNA scaffold (ssRNA)
RNA: GGAGGAGGGAGGACAAGCUACAAGACGUGCCACAACGUGCGAGCGUGUACGAACCCGCUCUGUCGCAUGGUGUGGAAUAGAGACGUCAACGCAGCUCGUAACAUAGCUUGGAUCUGUAUGAGCAUAGUCAGAGGCGAGGGCAGGCCAGCGGAGUUCACGAGAGCAGGAAUGUGAGGAUGACUGAGAAUUAGUCGAAAGACAUAGCUGCCUAGAAACGAGUUCAUCUAGGCACUUCGGUGAGAAUCCGAGAUACGGCUGGGUACUGUGGCGAGUGUGCCAUUUUACUCUGAACAGACUGUA
binding result (KnFNuc (Fanzor1)): binds
